Tests used:
human MET on cells [1] = molecular target: T1, human MET on cells (human, UniProt P08581 25-1390); experiment: cell-based or functional assay
human MET on cells [2] = molecular target: T1, human MET on cells; experiment: cell-based or functional assay; remark: listed apart in the source
Wherever % Inhibition, HEK293/SRE-Luc Blocking Activity (HGF, 1 h mAb pre-bind) is given: test concentration or dose not given here.

T1 sequence (P08581 25-1390 limits assumed, form in doubt): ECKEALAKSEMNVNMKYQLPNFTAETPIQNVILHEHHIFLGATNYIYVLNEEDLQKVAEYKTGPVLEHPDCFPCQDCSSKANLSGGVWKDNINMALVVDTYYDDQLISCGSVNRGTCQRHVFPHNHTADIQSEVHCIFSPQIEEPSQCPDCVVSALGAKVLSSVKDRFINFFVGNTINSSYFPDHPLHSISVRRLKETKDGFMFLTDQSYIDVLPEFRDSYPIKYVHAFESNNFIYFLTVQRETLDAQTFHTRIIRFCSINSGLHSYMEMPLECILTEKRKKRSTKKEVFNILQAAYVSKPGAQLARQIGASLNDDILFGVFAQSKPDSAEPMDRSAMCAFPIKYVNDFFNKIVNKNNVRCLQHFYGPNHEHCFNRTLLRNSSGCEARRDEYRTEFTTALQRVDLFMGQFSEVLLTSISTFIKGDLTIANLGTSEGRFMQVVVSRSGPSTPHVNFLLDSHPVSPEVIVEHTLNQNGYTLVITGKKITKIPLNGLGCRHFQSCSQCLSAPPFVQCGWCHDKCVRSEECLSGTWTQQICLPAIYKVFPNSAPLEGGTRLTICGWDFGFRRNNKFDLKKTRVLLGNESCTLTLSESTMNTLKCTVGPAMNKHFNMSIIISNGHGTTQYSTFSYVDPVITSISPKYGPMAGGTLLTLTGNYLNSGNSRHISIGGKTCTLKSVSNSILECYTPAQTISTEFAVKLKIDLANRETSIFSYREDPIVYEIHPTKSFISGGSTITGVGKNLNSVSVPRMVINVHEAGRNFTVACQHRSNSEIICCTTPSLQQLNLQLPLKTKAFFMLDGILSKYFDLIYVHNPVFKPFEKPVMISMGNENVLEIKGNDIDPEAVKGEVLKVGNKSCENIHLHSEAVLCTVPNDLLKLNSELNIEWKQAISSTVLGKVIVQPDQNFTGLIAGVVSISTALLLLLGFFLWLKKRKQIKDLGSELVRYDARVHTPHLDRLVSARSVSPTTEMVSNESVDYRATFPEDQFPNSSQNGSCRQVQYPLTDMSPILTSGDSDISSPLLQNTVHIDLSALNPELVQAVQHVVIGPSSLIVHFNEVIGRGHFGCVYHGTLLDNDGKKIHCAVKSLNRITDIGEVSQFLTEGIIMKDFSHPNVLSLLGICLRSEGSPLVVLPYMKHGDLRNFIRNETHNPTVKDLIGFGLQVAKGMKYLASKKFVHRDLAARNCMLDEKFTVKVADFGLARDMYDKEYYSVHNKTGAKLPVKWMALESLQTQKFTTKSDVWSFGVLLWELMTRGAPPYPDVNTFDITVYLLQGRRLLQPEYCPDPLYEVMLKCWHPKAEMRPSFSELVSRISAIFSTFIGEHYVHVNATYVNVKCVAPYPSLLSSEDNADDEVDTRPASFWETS

| % Inhibition, HEK293/SRE-Luc Blocking Activity (HGF, 1 h mAb pre-bind) (human MET on cells [1]) [%] | EC50, Ligand (HGF)-Independent HEK293/SRE-Luc Activation (human MET on cells [1]) [nM] | Fold Response, Ligand (HGF)-Independent HEK293/SRE-Luc Activation (human MET on cells [1]) [fold] | IC50, HEK293/SRE-Luc Blocking Activity (HGF, 1 h mAb pre-bind) (human MET on cells [1]) [nM] | % Growth Inhibition, SNU5 cells (human MET on cells [2]) [%] | IC50, SNU5 growth (human MET on cells [2]) [nM] | Binder |
| --- | --- | --- | --- | --- | --- | --- |
| 56 | < 0.002 | 9.8 | < 0.002 | 12 |  | H4H13290P2 (antibody, human IgG4, V domains shown) VH: QVQLQESGPGLVKPSETLSLTCTVSGDSISSYYWTWIRQPPGKGLEWIGYIFYRGGTTYNPSLKSRVTISVDTSKNQFSLKLRSVTAADTAVYYCARGDDLLVVTSVYWYIDLWGRGTLVTVSS VL: not shown |
| 67 | 0.18 | 4.8 | 0.052 | 23 | 0.1 | H4H13319P2 (antibody, human IgG4, V domains shown) VH: QVQLVESGGGVVQPGRSLRLSCAASGFTFSSFAMHWVRQAPGKGLEWVAVIWYDGSNDYYAASVKGRFTISRDNSKNTLYLEMNRLRAEDTAVYHCARDNWNYWGGMDVWGQGTTVTVSS VL: not shown |
| 62 | 0.3 | 5.2 | 0.035 | 8 |  | H4H13311P2 (antibody, human IgG4, V domains shown) VH: QVQLVESGGGVVQPGRSLRLSCAASGFTFSSYAMHWVRQAPGRGLEWVAVIWHDGDVEYYVDSVKDRFTISRDNSKSTLYLQMNSLRAEDTALYYCAREAWDLLRPFDYWGQGTLVTVSS VL: not shown |
| 40 |  | 1.6 | 1.5 | 33 | 0.074 | H4H13301P2 (antibody, human IgG4, V domains shown) VH: QVQLVESGGGVVQPGTSLRLSCVASGFTFRNFGMHWVRQAPGKGLEWVANIWFDGSNENYVESIQGRFTISRDNSKNTLNLQMNSLRAEDSAVYYCVREGILGTTNPYDAFDVWGQGTMVTVSS VL: not shown |
| 51 | 0.0037 | 14.4 |  | -8 |  | H4H13299P2 (antibody, human IgG4, V domains shown) VH: EVQLVESGGGLVQPGGSLRLSCAASGFIFSNYEMNWVRQAPGKGLEWISYITSSGNMKYYADSVKGRFTISRDNDKNSLYLQMSSLRVEDTAVYYCVRGGRFLEWLTYYVMVVWGQGTTVTVSS VL: not shown |

The remaining lines, values behind:

| Binder | % Inhibition, HEK293/SRE-Luc Blocking Activity (HGF, 1 h mAb pre-bind) (human MET on cells [1]) [%] | EC50, Ligand (HGF)-Independent HEK293/SRE-Luc Activation (human MET on cells [1]) [nM] | Fold Response, Ligand (HGF)-Independent HEK293/SRE-Luc Activation (human MET on cells [1]) [fold] | IC50, HEK293/SRE-Luc Blocking Activity (HGF, 1 h mAb pre-bind) (human MET on cells [1]) [nM] | % Growth Inhibition, SNU5 cells (human MET on cells [2]) [%] | IC50, SNU5 growth (human MET on cells [2]) [nM] |
| --- | --- | --- | --- | --- | --- | --- |
| H1H13316P2 (antibody, IgG1, V domains shown) VH: EVQLVESGGGLVQPGGSLRLSCAASGFTFRSYVMSWFRQAPGKGLEWVSGMSGSGGSTSYADSVKGRFTISRDNSKNTLYLLMNSLRTEDTAVYYCAKENGANWNYGYYGMDVWGQGTTVTVSS VL: not shown | 86 |  | 1.7 | 0.04 | 30 | 0.2 |
| H4H13295P2 (antibody, human IgG4, V domains shown) VH: QVQLVESGGGVVQPGRSLRVSCVVSGFTFSSFGMHWVRQAPDKGLEWVAVIWYDGSNDYYSDSVKGRFTISRDNSKNTLFLQMNRLRAEDTAVYYCARANNWNRFDAFDLWGQGTMVTVSS VL: not shown | 70 | 0.3 | 2.8 | 0.055 | 30 |  |
| H4H13306P2 (antibody, human IgG4, V domains shown) VH: EVQLVESGGGLVQPGTSLRLSCAASGFTFDDYAMHWVRQAPGKGLEWVSGITWNSYNIDYADSVKGRFTISRDNAKNSLYLQMNSLRAEDTALYYCAKDDDYSNYVYFDYWGQGTLVTVSS VL: not shown |  | 0.013 |  |  | 28 | 0.071 |
| H4H13309P2 (antibody, human IgG4, V domains shown) VH: QVQLVQSGTEVKEPGASVKVSCKASGYSFTTYGISWLRQAPGQGLEWMGWISTYNGDTISAQMLQDRVTLTADTSTRTAYMELRSLRSDDTAVYYCARGHEYDSLVYSYWGQGTLVTVSS VL: not shown | 77 | 0.39 | 9.2 | 0.2 | 22 | 0.1 |
| H1H13301P2 (antibody, IgG1, V domains shown) VH: QVQLVESGGGVVQPGTSLRLSCVASGFTFRNFGMHWVRQAPGKGLEWVANIWFDGSNENYVESIQGRFTISRDNSKNTLNLQMNSLRAEDSAVYYCVREGILGTTNPYDAFDVWGQGTMVTVSS VL: not shown | 42 |  | 1.4 | 3.3 | 33 | 0.1 |
